Measured values published in article PMC5820281.

Columns and labels:
[1] = target: Renilla luciferase-IgG1 Fc fusion protein (Fc region of IgG1, amino acids 233–449); assay: luciferase pull-down (bead-immobilized GST fusion protein, luciferase-tagged Fc-IgG); conditions: parent: est. 240000; read off a plot
[2] = target: protein A/G (Ultralink protein A/G beads); assay: luciferase pull-down (protein A/G beads, luciferase-tagged Fc-IgG); conditions: read off a plot
[3] = target: GST-Ro52-Δ2 (C-terminal fragment of Ro52/TRIM21 fused to glutathione S-transferase) (UniProt P19474); assay: luciferase pull-down (bead-immobilized GST fusion protein, luciferase-tagged Fc-IgG); conditions: read off a plot
Chain of UniProt P19474 (P19474 277-475, stated change not applied): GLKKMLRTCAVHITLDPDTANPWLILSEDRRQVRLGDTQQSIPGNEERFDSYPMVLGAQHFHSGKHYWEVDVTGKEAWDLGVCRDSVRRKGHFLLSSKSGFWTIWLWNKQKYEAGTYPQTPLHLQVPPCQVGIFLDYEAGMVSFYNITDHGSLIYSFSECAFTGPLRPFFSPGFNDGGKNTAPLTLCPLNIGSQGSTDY

response [1] [LU] | Substance | response [2] [LU] | response [3] [LU]
3900 | GST-Ro52-Δ2 (C-terminal fragment of Ro52/TRIM21 fused to glutathione S-transferase) (from UniProt P19474) D355A | – | –
– | Renilla luciferase-IgG1 Fc fusion protein (Fc region of IgG1, amino acids 233–449) H435del; N436del; H437del | 3600 | 4200
